Test results from patent US8604172B2, “Humanized antibody compositions and methods for binding lysophosphatidic acid” (Lpath, Inc., priority 2009, dated 2013).
Read-outs that look alike come from different tables or passages of the source.

Assays:
[1] = Direct binding ELISA of anti-LPA mAbs to 12:0 LPA
Experimental: (§1) The binding of 6 anti-LPA mAbs (B3, B7, B58, A63, B3A6, D22) to 12:0 and 18:1 LPA (0.1 uM) was measured by ELISA. EC50 values were calculated from titration curves using 6 increasing concentrations of purified mAbs (0 to 0.4 ug/ml). EC50 represents the effective antibody concentration with 50% of the maximum binding. Max denotes the maximal binding (expressed as OD450).

[2] = Direct binding ELISA of anti-LPA mAbs to 18:1 LPA
Experimental: as §1

[3] = Competition ELISA (18:1 LPA coat), competitor 20:4 LPA; assay type: binding; details: maximum inhibition
Experimental: Many isoforms of LPA have been identified to be biologically active and it is preferable that the mAb recognize all of them to some extent to be of therapeutic relevance. The specificity of the anti-LPA mAbs was evaluated utilizing a competition assay in which the competitor lipid was added to the antibody-immobilized lipid mixture.
Competition ELISA assays were performed with the anti-LPA mAbs to assess their specificity. 18:1 LPA was captured on ELISA plates. Each competitor lipid (up to 10 uM) was serially diluted in BSA (1 mg/ml)-PBS and then incubated with the mAbs (3 nM). Mixtures were then transferred to LPA coated wells and the amount of bound antibody was measured with a secondary antibody. Data are normalized to maximum signal (A450) and are expressed as percent inhibition. Assays were performed in triplicate. IC50: Half maximum inhibition concentration; MI: Maximum inhibition (% of binding in the absence of inhibitor); - - -: not estimated because of weak inhibition. A high inhibition result indicates recognition of the competitor lipid by the antibody.

[4] = Competition ELISA specificity, competitor Cer; assay type: binding; details: maximum inhibition, n = 3
Experimental: The specificity of the anti-LPA mAbs was assessed for their binding to LPA related biolipids such as distearoyl-phosphatidic acid, lysophosphatidylcholine, S1P, ceramide and ceramide-1-phosphate.

[5] = system: IL-8 release in SKOV3 cells; assay: LPA-induced IL-8 release in SKOV3 cells; assay type: cell-based, human
Experimental: Anti-LPA antibodies inhibit the LPA-dependant release of human CXCL8/IL-8 in conditioned media of SKOV3 ovarian cells. SKOV3 cells (Lot No 4255558, passage 14) were harvested with 2 ml of 1× Trypsin EDTA (Mediatech Inc, Cat. No 25-053-CV) and resuspended in 8 ml of complete medium (10% FBS, Mediatech Inc. Cat. no 35-011-CV). The cells were centrifuged for 5 min ([…]) and re-suspended in 5 ml of complete medium. Cells were counted in duplicate with 0.4% Trypan blue (10 ul cells plus 90 ul Trypan blue, Invitrogen, Cat. No 15250-061) using a hemocytometer. In a 96-well plate, 1×10^5 cells per well were seeded (final volume 100 ul/well). The cells were allowed to attach and form a confluent monolayer by incubating overnight at 37° C. On the following day, cells were gently washed two times with minimum media (1 mg/ml BSA in McCoy's medium with L-glutamine, Mediatech, Cat. No 10-050-CV). The media was adjusted to 1% penicillin/streptomycin (Mediatech, Cat. No 30-002 CI) and 2.2 g/L sodium-bicarbonate (Mediatech, Cat. No 25-035-CI). Next, the cells were serum-starved at 37° C. for exactly 24 h, followed by cytokine stimulation with 1 uM C18:1 LPA (Avanti, Cat. No 857130) dissolved in 1 mg/ml BSA/PBS (Calbiochem, Cat. No 126575) which was pre-incubated in presence or absence of humanized LPA antibody LT3015 (150, 300 or 600 ug/mL) for one hour. Treatments were then added to the cells. After 22 h of cytokine stimulation, the cells were centrifuged for 5 min (13,500 rpm) at 4° C. and the supernatants (cell-conditioned media) were collected. The CXCL8/IL-8 levels in each supernatant were measured using the Quantikine human CXCL8/IL-8 ELISA kit according to vendor instructions (R&D Systems, Minneapolis Minn., Cat. No D8000C). The IL-6 levels were measured by ELISA using the Quantikine human IL-6 immunoassay kit (R&D systems, Cat. No. D6050). Data were analyzed by one-way ANOVA followed by Bonferroni's post test and expressed as human IL-8 or human IL-6 fold increase.

[6] = Surface plasmon resonance, 18:0 LPA on GLC sensor chip; assay type: binding
Experimental: All binding data were collected on a ProteOn optical biosensor (BioRad, Hercules Calif.). 12:0 LPA-thiol and 18:0 LPA-thiol were coupled to a maleimide modified GLC sensor chip (Cat. No 176-5011). First, the GLC chip was activated with an equal mixture of sulfo-NHS/EDC for seven minutes followed by a 7 minute blocking step with ethyldiamine. Next sulfo-MBS (Pierce Co., cat #22312) was passed over the surfaces at a concentration of 0.5 mM in HBS running buffer (10 mM HEPES, 150 mM NaCl, 0.005% tween-20, pH 7.4). LPA-thiol was diluted into the HBS running buffer to a concentration of 10, 1 and 0.1 uM and injected for 7 minutes producing 3 different density LPA surfaces (˜100, ˜300 and ˜1400 RU). Next, binding data for the humanized antibodies was collected using a 3-fold dilution series starting with 25 nM as the highest concentration (original stocks were each diluted 1 to 100). Surfaces were regenerated with a 10 second pulse of 100 mM HCl. All data were collected at 25° C. Controls were processed using a reference surface as well as blank injections. […] In order to extract estimates of the binding constants, data from the varying antibody concentrations were globally fit using 1-site and 2-site models. This produced estimates of the affinity for the bivalent (site 1) and monovalent site (site 2).

[7] = system: selected human cancer cell lines; assay: LPA-induced cancer cell proliferation; assay type: cell-based; details: addition of anti-LPA mAb
Experimental: LPA is a potent growth factor supporting cell survival and proliferation by stimulation of Gi, Gq and G12/13 via GPCR-receptors and activation of downstream signaling events. Cell lines were tested for their proliferative response to LPA ([…]). Cell proliferation was assayed by using the cell proliferation assay kit from Chemicon (Temecula Calif.) (Panc-1) and the Cell-Blue titer from Pierce (Caki-1). Each data point is the mean of three independent experiments. […] Even though tumor-derived cells normally have high basal levels of proliferation, LPA appears to further augment proliferation in most tumor cell lines. Anti-LPA mAbs (B7 and B58) were assessed for the ability to inhibit LPA-induced proliferation in selected human cancer cell lines.

- EC50 ([1]; 12:0 LPA 0.1 uM, mAb 0 to 0.4 ug/ml): 0.413 nM
- Max (OD450), 12:0 LPA ([1]; maximal binding): 1.395 OD450
- EC50 ([2]; 18:1 LPA 0.1 uM, mAb 0 to 0.4 ug/ml): 0.274 nM
- Max (OD450), 18:1 LPA ([2]; maximal binding): 0.973 OD450
- Kd ([6]; first value (site 1, bivalent), read-out: KD (C18)): 11 pM
- Kd ([6]; value in parentheses (site 2, monovalent), read-out: KD (C18), value in parentheses): 5 pM
B1: LT3000: Murine anti-LPA monoclonal antibody clone B7, IgG1k, renamed Lpathomab, also known as LT3000; hybridoma 504B7.1, ATCC PTA-8420 (antibody, V domains shown)
VH: QVQLQQSGAELVRPGTSVKVSCKASGYGFINYLIEWIKQRPGQGLEWIGLINPGSDYTNYNENFKGKATLTADKSSSTAYMHLSSLTSEDSAVYFCARRFGYYGSGNYFDYWGQGTTLTVSS
VL: DVVMTQTPLSLPVSLGDQASISCTSGQSLVHINGNTYLHWYLQKPGQSPKLLIYKVSNLFSGVPDRFSGSGSGTDFTLKISRVEAEDLGVYFCSQSTHFPFTFGTGTKLEIK
- MI, 20:4 LPA [3]: 67%
- MI (%), Cer [4]: 1%
- IL-8 Release, % Inhibition (over LPA taken as 100) ([5]; Lpathomab 300 μg/mL, 1 μM 18:1 LPA, n = 3): 20%
- IL-8 release from ovarian cancer cells ([5]; in vitro): reduced IL-8 release from ovarian cancer cells in a concentration-dependent manner
- LPA-induced increase in proliferation [7]: mitigated
